Patent publication US20040014055A1

Assays:
[1] = target: HER1/2 VA (Homo sapiens (Human)) (UniProt P00533)
[2] = target: chimera EGF-R/ERBB2 (HER 1/2) (Homo sapiens (Human)) (UniProt P00533)

Erbin of the MDCK cells
basolateral localisation of the receptor on MDCK transfectants (biotinylation of the cell surface, autoradiography) (% basolateral) [1]: 53 | basolateral localisation of the receptor on MDCK transfectants (biotinylation of the cell surface, autoradiography) (% basolateral) [2]: 83
